According to patent US20060121462A1 (published 2006):

Columns and labels:
human C5L2 [1] = biological target: T1, human C5L2 (human, UniProt Q9P296 1-337); test: cell-based or functional assay
human C5L2 [2] = biological target: T1, human C5L2; test: radioligand competition on transfected RBL cells (Table I)
human C5L2 [3] = biological target: T1, human C5L2; test: competition with 50 pM 125I-C3a on C5L2-transfected RBL cells, 4 C
Experimental: (§1) Competition binding assays were performed using 50 pM ¹²⁵I-C5a or ¹²⁵I-C3a (NEN) on adherent C5aR-transfected or C5L2-transfected RBL cells in 96-well microtiter plates (55 000/well) at 4° C. as described previously (22). Competition curves were generated by pre-incubating adherent cells with increasing concentrations of unlabelled complement fragments. The IC₅₀, standard error values and linear regression analyses were obtained by using GraphPad Prism 2.0.

human C5L2 [4] = biological target: T1, human C5L2; test: competition with 50 pM 125I-C5a on C5L2-transfected RBL cells, 4 C
Experimental: as §1

[5] = biological target: T2, human C3a receptor (C3aR) (human, UniProt Q16581 1-482); test: radioligand competition on C3aR-transfected RBL cells (radioligand not given)
T2 construct: whole, on cells
T2 sequence (looked up): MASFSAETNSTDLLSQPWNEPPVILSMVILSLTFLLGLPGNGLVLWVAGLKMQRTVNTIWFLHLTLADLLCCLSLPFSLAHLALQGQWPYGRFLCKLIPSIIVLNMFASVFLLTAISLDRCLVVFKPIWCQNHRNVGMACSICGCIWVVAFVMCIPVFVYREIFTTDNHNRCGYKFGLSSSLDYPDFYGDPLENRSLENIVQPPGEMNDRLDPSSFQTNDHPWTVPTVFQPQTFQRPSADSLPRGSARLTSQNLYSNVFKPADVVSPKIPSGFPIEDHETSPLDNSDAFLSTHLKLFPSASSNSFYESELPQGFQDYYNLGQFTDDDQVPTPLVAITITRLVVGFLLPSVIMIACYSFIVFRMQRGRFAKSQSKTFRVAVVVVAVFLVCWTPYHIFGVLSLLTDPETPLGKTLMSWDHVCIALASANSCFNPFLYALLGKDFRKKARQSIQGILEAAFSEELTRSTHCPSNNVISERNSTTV

[6] = biological target: T3, human CD88 (C5a receptor) (human, UniProt P21730 1-350); test: competition with 50 pM 125I-C5a on CD88-transfected RBL cells, 4 C
T3 construct: whole, on cells
T3 sequence (looked up): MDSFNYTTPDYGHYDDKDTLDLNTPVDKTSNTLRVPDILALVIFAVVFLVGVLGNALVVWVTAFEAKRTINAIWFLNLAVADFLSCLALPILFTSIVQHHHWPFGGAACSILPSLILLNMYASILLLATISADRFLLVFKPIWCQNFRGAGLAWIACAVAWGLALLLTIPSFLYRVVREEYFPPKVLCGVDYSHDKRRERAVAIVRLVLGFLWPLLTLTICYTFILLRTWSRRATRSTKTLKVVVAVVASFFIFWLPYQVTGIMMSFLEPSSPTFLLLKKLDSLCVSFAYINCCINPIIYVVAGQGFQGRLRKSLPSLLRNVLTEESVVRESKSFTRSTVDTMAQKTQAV
Experimental: as §1

[7] = biological target: T2, human C3a receptor (C3aR); test: radioligand competition on C3aR-transfected RBL cells
[8] = biological target: T2, human C3a receptor (C3aR); test: flow cytometry, binding/uptake of FLUOS-C3a on HEK 293 cells transiently transfected with C3aR, 30 min at 37 C
Experimental: (§2) HEK 293 cells were transfected with C3aR (A) or C5L2 (B) and three days later cells were incubated for 30 minutes with the indicated concentrations of FLUOS-labelled C3a or ASP, respectively. Binding/uptake was assessed by FACS, and the percentage of cells above a fluorescence intensity of 8 was determined. The fluorescence histograms at the highest and lowest ligand concentrations are shown in the insets;
(§3) Recombinant C3a des-Arg⁷⁷ can clearly compete with ¹²⁵I-C3a for binding to C5L2, so we then directly measured the affinity of C3a des-Arg⁷⁷ for C5L2, using protein purified from human plasma as ASP. ASP and purified human C3a were labelled with FLUOS. Increasing concentrations of ASP were incubated with HEK 293 cells transiently transfected with C5L2 and binding and uptake assessed by flow cytometry (FIG. 2A). FLUOS-ASP clearly binds to C5L2, with half maximal fluorescence intensity at approximately 3 nM, whereas mock-tansfected cells show no binding of ASP even at a high concentration of 10 nM. For comparison purposes, the binding of FLUOS-C3a and FLUOS-ASP to HEK 293 cells transiently transfected with C3aR is shown (FIG. 2B). […] Thus, C5L2 has binding characteristics that overlap with both CD88 and C3aR but also the unique ability to bind ASP/C3a des-Arg⁷⁷.

[9] = biological target: T2, human C3a receptor (C3aR); test: flow cytometry, FLUOS-ASP on HEK 293 cells transiently transfected with C3aR
Experimental: as §2, §3

T1 sequence (Q9P296 whole entry): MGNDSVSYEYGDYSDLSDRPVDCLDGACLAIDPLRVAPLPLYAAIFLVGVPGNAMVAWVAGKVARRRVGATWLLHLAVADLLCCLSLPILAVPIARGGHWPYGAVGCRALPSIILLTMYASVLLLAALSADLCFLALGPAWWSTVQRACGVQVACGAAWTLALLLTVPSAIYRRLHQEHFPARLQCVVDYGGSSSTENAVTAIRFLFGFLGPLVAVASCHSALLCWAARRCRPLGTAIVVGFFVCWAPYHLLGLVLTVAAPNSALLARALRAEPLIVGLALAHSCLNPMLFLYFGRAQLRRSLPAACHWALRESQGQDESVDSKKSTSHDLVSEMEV

| Binder | activity in the degranulation-enhancement assay against C3a des-Arg^77, C5L2-transfected RBL cells (human C5L2 [1]) [fold] | fold higher affinity for C5L2 than for C3aR (human C5L2 [2]) [fold] | IC50 (human C5L2 [3]) [nM] | pD2 (human C5L2 [3]) | IC50 (human C5L2 [4]) [nM] | pD2 (human C5L2 [4]) | IC50 [5] [nM] | pD2 [5] | IC50 [6] [nM] | pD2 [6] | binding result [7] | EC50 [8] [nM] | binding result [9] |
| --- | --- | --- | --- | --- | --- | --- | --- | --- | --- | --- | --- | --- | --- |
| recombinant C4a des-Arg^77 (ligand, UniProt P0C0L4 680-755, looked up, domain: C4a des-Arg^77; Expressed and purified under non-denaturing conditions; also called C4adR^77) NVNFQKAINEKLGQYASPTAKRCCQDGVTRLPMMRSCEQRAARVQQPDCREPFLSCCQFAESLRKKSRDKGQAGLQ | 230 | 1000 | 177 | 6.75 -log IC50 | 170000 | 4.72 -log IC50 | 100000 | 4.99 -log IC50 | – | – | – | – | – |
| recombinant His6-tagged C5a (ligand, UniProt P01031 678-751, looked up, domain: C5a; Expressed and purified under denaturing conditions; not shown: His6 tag) TLQKKIEEIAAKYKHSVVKKCCYDGACVNNDETCEQRAARISLGPRCIKAFTECCVVASQLRANISHKDMQLGR | – | – | 293 | 6.53 -log IC50 | 8.17 | 8.09 -log IC50 | 2900 | 5.54 -log IC50 | 20.5 | 7.69 -log IC50 | – | – | – |
| recombinant His6-tagged C5a des-Arg^74 (ligand, UniProt P01031 678-750, looked up, domain: C5a des-Arg^74; also called C5adR^74; not shown: His6 tag) TLQKKIEEIAAKYKHSVVKKCCYDGACVNNDETCEQRAARISLGPRCIKAFTECCVVASQLRANISHKDMQLG | – | – | – | < 3 -log IC50 | 36.9 | 7.43 -log IC50 | 9670 | 5.02 -log IC50 | 411 | 6.39 -log IC50 | – | – | – |
| recombinant C4a (ligand, UniProt P0C0L4 680-756, looked up, domain: C4a; Expressed and purified under non-denaturing conditions) NVNFQKAINEKLGQYASPTAKRCCQDGVTRLPMMRSCEQRAARVQQPDCREPFLSCCQFAESLRKKSRDKGQAGLQR | – | – | 485 | 6.31 -log IC50 | 3790 | 5.42 -log IC50 | 250 | 6.6 -log IC50 | 4440 | 5.35 -log IC50 | – | – | – |
| recombinant His6-tagged C3a (ligand, domain: C3a; Expressed and purified under denaturing conditions; not shown: His6 tag) not shown | – | – | – | – | – | – | 155 | 6.81 -log IC50 | 230000 | 4.64 -log IC50 | – | – | – |
| recombinant C3a des-Arg^77 (ligand, Recombinant form, expressed and purified under non-denaturing conditions; also called C3adR^77) not shown | – | – | – | – | – | – | – | < 4 -log IC50 | – | – | no binding (tested: pD2 <4) | – | – |
| plasma C3a, purified human C3a (ligand, FLUOS (fluorescein) label; labelled residues not stated, domain: C3a; also called FLUOS-C3a) not shown | – | – | – | – | – | – | – | – | – | – | – | 2.5 | – |
| plasma ASP (C3a des-Arg^77), purified from human plasma (ligand, FLUOS (fluorescein) label in the flow cytometry assays, ^125I label in one assay; labelled residues not stated, Unlabelled in the functional assays; also called acylation stimulating protein; FLUOS-ASP) not shown | – | – | – | – | – | – | – | – | – | – | – | – | no binding |
